From patent US20220125962A1
One block for each molecule: values may come before it.

Legend:
[1] = biological target: human CD33 antigen (human) (UniProt P20138); test: immunoreactivity of the radiolabeled HuM195-DOTA conjugate, Preparation 2; format not described
[2] = biological target: human CD33 antigen (human) (UniProt P20138); test: immunoreactivity of the radiolabeled HuM195-DOTA conjugate, Preparation 1; format not described

- Immunoreactivity (%) [1]: 82%
- Immunoreactivity (%) [2]: 72.2%
Molecule: ^225Ac-HuM195 (HuM195-DOTA conjugate labeled with thorium cow-generated ^225Ac) (antibody)

- Immunoreactivity (%) [1]: 83%
- Immunoreactivity (%) [2]: 65.4%
B1: ^225/7Ac-HuM195 (HuM195-DOTA conjugate labeled with linac/accelerator-generated ^225Ac containing a molar excess of ^227Ac) (antibody, INN chains, looked up, V domains shown)
VH: QVQLVQSGAEVKKPGSSVKVSCKASGYTFTDYNMHWVRQAPGQGLEWIGYIYPYNGGTGYNQKFKSKATITADESTNTAYMELSSLRSEDTAVYYCARGRPAMDYWGQGTLVTVSS
VL: DIQMTQSPSSLSASVGDRVTITCRASESVDNYGISFMNWFQQKPGKAPKLLIYAASNQGSGVPSRFSGSGSGTDFTLTISSLQPDDFATYYCQQSKEVPWTFGQGTKVEIK
modifications: DOTA conjugate labelled with 225Ac/227Ac
